Measurements published in the RNAGym collection of RNA variant scans (doi:10.1073/pnas.2313332121).
This sample holds only a part of the variants without activity.

B1: TPR 5TU (parent)
chain: GGAUCUUCUCGAUCUAACAAAAAAGACAAAUCUGCCACAAAGCUUGAGAGCAUCUUCGGAUGCAGAGGCGGCAGCCUUCGGUGGCGCGAUAGCGCCAACGUUCUCAACUAUGACACGCAAAACGCGUGCUCCGUUGAAUGGAGUUUAUCAUG

Variants of: B1
Experiment: polymerase ribozyme fitness, log enrichment relative to wild type (log ratio); higher = more active; in vitro selection for triplet polymerase activity
In short: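 A heterodimeric triplet polymerase ribozyme had each of its subunits mutagenized by PCR into a library, which was transcribed. One round of in vitro selection, done in triplicate, annealed each library with a biotinylated primer, its partner subunit and triplets, then incubated it frozen at −7 °C before gel excision of extended constructs, streptavidin-bead capture and RT-PCR. Fitness is the logarithm of genotype enrichment relative to wild-type enrichment, based on Illumina sequencing of inputs and outputs and inverse-variance-weighted replicate averages. A base-2 logarithm is used, and genotypes were kept only with ≥10 input reads and ≥1 read per output.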

Variant	polymerase ribozyme fitness (log ratio)
GGAUCUUCUCGAUCUAACAAAAAAGACAAAUCUGCCACAAAGCUAGAGAGCAUCUUCGGAUGCAGAGGCGGCAGCCUUCGGUGGCGCGAUAGCGCCAACGUUCUCAACUAUGACAUGCAAAACGCGUGCUCCGUUGAAUGGAGUUUAUCAUG [U45A C116U]	-2.44
GGAUCUUCUCGAUCUAACAAAAAAGACAAAUCUGCCACAAAGCUAGAGAGCAUCUUCGGAUGCAGAGGCGGCAGCCUUCGGUGGAGGGAUAGCGCCAACGUUCUCAACUAUGAAACGCAAAACGCGUGCUCCGUUGCAUGGAGUUUAUCAUG [U45A C85A C87G C114A A137C]	≤ -4.2
GGAUCUUCUCGAUCUAACAAAAAAGACAAAUCUGCCACAAAGCUAGAGAGAAUCUUCGGAUGCAGAGGCGGCAGCCUUCGGUGACGCGAUAGCGCCAACGUUCUCAACUAUGACACGCAAAACGCGUGCUCCGUUGAAUGGAGUUUAUCAUG [U45A C51A G84A]	≤ -4.2
GGAUCUUCUCGAUCUAACAAAAAAGACAAAUCUGCCACAAAGCUAGAGAGCAUCUUCGGAUGCAGAGGCGGCAGCCUUCGGUGGCGCGAUAGCGCCAAAGUUCUCUACUAUGACACGCAAUACGCGUGCUCCGUUGAAUGGAGUUUAUGAUA [U45A C99A A106U A121U C149G G152A]	-4.01
GGAUCUUCUCGAUCUAACAAAAAAGACAAAUCUGCCACAAAGCUAGAGAGCAUCUUCGGAUGCAGAGGCGGCAGCCUUCGGUGGUGCGAUAGCGCCAACGUUCUCAACUAUGACACGCAAAACGCGUGCUCCGUUGAAUGGAGUUUAUCAUG [U45A C85U]	-3.1
GGAUCUUCUCGAUCUAACAAAAAAGACAAAUCUGCCACAAAGCUAGAGAGCAUCUUCGGAUGCAGAGGCGGCAGCCUUCGGUGGCGCGAUAGCGCCAACGUUCUCAACUAUGACCCGCAAAACGCGUGCUCCGUUGAAUGGAGUUUAUCAUG [U45A A115C]	≤ -4.2
GGAUCUUCUCGAUCUAACAAAAAAGACAAAUCUGCCACAAAGCUAGAGAGCCUCUUCGGAUGCAGAGGCGACAGCCUUCGGUGGCGCGAUAGCGCCAAAGUUCUCAACUAUGACACGCAAAACGCGUGCUCCUUUGAAUGGAGUGUAUCAUG [U45A A52C G71A C99A G133U U145G]	≤ -4.2
GGAUCUUCUCGAUCUAACAAAAAAGACAAAUCUGCCACAAAGCUAGAGAGCAUCUUCGGAUGCAGAGGCGGCUGCCUUCGGUAGCGCGAUAGCGCCAACGUUCUCAACUAUGACACGCAAAACGCGUUCUCCGUUGAAUGGAGUUUAUCAAG [U45A A73U G83A G128U U151A]	≤ -4.2
GGAUCUUCUCGAUCUAACAAAAAAGACAAAUCUGCCACAAAGCUAGAGAGCAUCUUCGGAUGCAGAGGCGGCAGUCUUCGGUGGCGCGAAAGUGCCAACGUUCUCAACUAUGACACGCUAAACGCGUGCUCCGUUGAAUGCAGUUUAUCAUG [U45A C75U U90A C93U A119U G141C]	≤ -4.2
GGAUCUUCUCGAUCUAACAAAAAAGACAAAUCUGCCACAAAGCUAGAGAGCAUCUUCGGGUGCAGAGGCGGCAGCCUUCGGUGGCGCGAUAGCAGCAACGUUCUCAACUAUGACACGCAAAACGCGUGCUCCGUUGAAUGGAGCUUAUCAGG [U45A A60G G94A C95G U144C U151G]	≤ -4.2
GGAUCUUCUCGAUCUAACAAAAAAGACAAAUCUGCCACAAAGCUAGAGAGUAUCUUCGGAUGCAGAGGCGGCAACCUUCGGUGGCGCGAUAGCGACAACGUUCUCAACUAUGACACGCAAAACGCGUGCUCCGUGGAAUGGAGUUUAUCAUG [U45A C51U G74A C95A U135G]	≤ -4.2
GGAUCUUCUCGAUCUAACAAAAAAGACAAAUCUGCCACAAAGCUAGAGUGCAUCUUCGGAUGCAGAGGCGGCAGCCUUCGGUGGCGCGAUAGCGCCAACGUUCUCAACUAUGACACGCAAAACGCGUGCUCCGUUGAAUGGAGUUUAUCAUG [U45A A49U]	≤ -4.2
GGAUCUUCUCGAUCUAACAAAAAAGACAAAUCUGCCACAAAGCUAGAGAGCAUCUUAGGAUGCAGAGGCGGCAGCCUUCGGUGGCGCGAUAGCGCUAACGUUCUCAACUAUGACACGCAAAACACGUGCUCCGUUGAAUGGAGUUUAUCAUG [U45A C57A C96U G124A]	-3.11
GGAUCUUCUCGAUCUAACAAAAAAGACAAAUCUGCCACAAAGCUAGAGAGCAUCUUCGGAUGCAGAGGCGGCAGCCUUCGGUGGCGCGAUCGCGGCAACGUUCUCAACUAUGACACGCAAAACGCGUGCUCCGUUGAAUGGUGUUUAUCAUG [U45A A91C C95G A142U]	≤ -4.2
GGAUCUUCUCGAUCUAACAAAAAAGACAAAUCUGCCACAAAGCUAGAGAGCAUCUUCGGAUGCAGAGGCGGCAGCCUUCGGUGGCGCGAUAGCGCCAACGUUCUCAACUAUGACACGCAAGACGCGUGCUGCGUUGAAUUGAGUUUAUCAUG [U45A A121G C131G G140U]	≤ -4.2
GGAUCUUCUCGAUCUAACAAAAAAGACAAAUCUGCCACAAAGCUAGAGAGCGUCUUCGGAUGCAGAGGCGGCAGCCUUCGGGGGCGCGAUAGCGCCAACGUUCUCAACUAUGACGCGCAAAACGCGUGCUCCGUUUAAUGAAGUUUAUCAGG [U45A A52G U82G A115G G136U G141A U151G]	≤ -4.2
GGAUCUUCUCGAUCUAACAAAAAAGACAAAUCUGCCACAAAGCUAGAGAGCAUCUUCGGAUGCAGAGGCGGCAGCCUUCGGUGGCGCGAUAGCGCCAACGUUCUCAACUAUGACACGCAAAACGCGUGCUCCGUUGAAUGGGGUUUAUCAUG [U45A A142G]	-2.94
GGAUCUUCUCGAUCUAACAAAAAAGACAAAUCUGCCACAAAGCUAGAGCGCAUCUUCGGAUGCAGAGGCGGCAGCCUUCGGUGACGCGAUAGCGCCAACGUUCUCAACUAUGACACGCAAAACGCGUGCUCCGUUGAAUGGAGUUUAUCAUG [U45A A49C G84A]	≤ -4.2
GGAUCUUCUCGAUCUAACAAAAAAGACAAAUCUGCCACAAAGCUAGAGAGCAUCUUCGGAUGCAGAGGCGGCAGCCUUCGGUGGCGCGAUAGCGCAAACGUUCUCAACUAUGACACGCAAAACGCGUGCUCCGUUGAAUGGAGUUUAUCAUG [U45A C96A]	-2.56

Variant	polymerase ribozyme fitness (log ratio)
GGAUCUUCUCGAUCUAACAAAAAAGACAAAUCUGCCACAAAGCUAGAGAGCAUCUUCGGAUGCAGAGGCGGCAGCCUUCGGUGGCGCGAUAGCGCUAACGUUCUCAACUAUGACACGCAAAACGCGUGCUCCGUUGAAUGGAGUUUAUCAUG [U45A C96U]	-2.86
GGAUCUUCUCGAUCUAACAAAAAAGACAAAUCUGCCACAAAGCUAGAGAGCAUCUUCGGAUGCAGAGGCGGCAGCCUUCGGUGGCGCGAUAGCGCCAAAGUUCUCAACUAUGACACGCAAAACGCGUGCUCCGUUGAAUGGAGUUUAUCAUG [U45A C99A]	≤ -4.2
GGAUCUUCUCGAUCUAACAAAAAAGACAAAUCUGCCACAAAGCUAGAGAGCCUCUUCGGAUGCAGAGGCGGCAGCCUUCGGUGGCGCGAUAGCGCCAACGUUCUCAACUAUGACACGCAAAACGCGUGCUCCGUUGAAUGGAGUUUAUCAUG [U45A A52C]	≤ -4.2
GGAUCUUCUCGAUCUAACAAAAAAGACAAAUCUGCCACAAAGCUAGAGAGCAUCUUCGGAUGCAGUGGCGACAGCCUUCGGUGGCGCGAUAGCGCCAACGUUCUCAACUAUGACACGCAAAACGCGUGCUCCGUUGAAUGGAGUUUAUCAUG [U45A A66U G71A]	≤ -4.2
GGAUCUUCUCGAUCUAACAAAAAAGACAAAUCUGCCACAAAGCUAGAGAGCAUCUUCGGAUGCAGAGGCGGCAGCCUUCGGUGGAGCGAUAGUGCUAACGUUCUCAACUAUGACACGAAAAACGCGUGCUCAGUUGAAUGGAGUUUAUCAUG [U45A C85A C93U C96U C118A C132A]	≤ -4.2
GGAUCUUCUCGAUCUAACAAAAAAGACAAAUCUGCCACAAAGCUAGAGAGCAUCUUCGGAUGCAGAGGCGGAAGCCUUCGGUGGCUCGAUAGCGCCAAUGUUCUCAACUAUGACACGCAAAACGCGUGCUCCGUUGAAUGGAGUUUAUCAUG [U45A C72A G86U C99U]	≤ -4.2
GGAUCUUCUCGAUCUAACAAAAAAGACAAAUCUGCCACAAAGCUAGAGAGCAUCUUCGGAUGCAGAGGCGGCAGCUUUCGGUGGCGCGAUAGCGCCAUCCGUCUCUACUAUGACACGCAAAACGCGUGCUCCGUUGAAUGGAGUUUAUCAUG [U45A C76U A98U G100C U101G A106U]	-4
GGAUCUUCUCGAUCUAACAAAAAAGACAAAUCUGCCACAAAGCUAGAGAGCAUCUUCGGAUGCAGAGGAGGCAGCCUUCGGUGGCGCGAUAGCGUCAAGGUUCUCAACUAUUAUACGCAAAACGCGUGCUCCGUUGAAUGGAGUUUUUCAUG [U45A C69A C95U C99G G112U C114U A147U]	≤ -4.2
GGAUCUUCUCGAUCUAACAAAAAAGACAAAUCUGCCACAAAGCUAGAGAGCAUAUUCGGAUGCAGAGGCGGCAGCCUUCGGUGGCGCGAUAGCGACAACGUUCUCAACUAUGGCACGCAAAACGCGUGAUCCGUUGAAUGGAGUUUAUCAUG [U45A C54A C95A A113G C129A]	≤ -4.2
GGAUCUUCUCGAUCUAACAAAAAAGACAAAUCUGCCACAAAGCUAGAGAGUAUUUUCGGAUGCAGAGGCGGCAGCCUUCGGUGGCGCGAUAUCGCCAACGUUCUCAACUAUGACACGCAAAACGCGUGCUCCGUUGAAUGGAGUUUAUCAUG [U45A C51U C54U G92U]	-3.95
GGAUCUUCUCGAUCUAACAAAAAAGACAAAUCUGCCACAAAGCUAGAGAGCAUCUUCGGAUGCAGAGGCGGCGGCCUUCGGUCGUGCGAUAGCGCCAACGUUCUCAACUAUGACACGCAAAACGCGUGCUCCGUUGAAUGGAGUUUAUCAUG [U45A A73G G83C C85U]	≤ -4.2
GGAUCUUCUCGAUCUAACAAAAAAGACAAAUCUGCCACAAAGCUAGAGAGCAUUUUCGGAAGCAGAGGCGGCAGCCUUCGGUGGUGCGAUAGCGCCAACGUUCUCAACUAUGACACGCAAAACGCGUGCUCCGUUGAAUGGAGUUUAUCAUG [U45A C54U U61A C85U]	≤ -4.2
GGAUCUUCUCGAUCUAACAAAAAAGACAAAUCUGCCACAAAGCUAGAGAGCAUCUUCGGAUGCCGAGGCGGCAGCCUUCGGUGGCGCGAUAGAGCCAACGUUCUCAACUAUGACACGCAAAACGCGUGCUCCGUUGAAUGGAGUUUAUCAUG [U45A A64C C93A]	≤ -4.2
GGAUCUUCUCGAUCUAACAAAAAAGACAAAUCUGCCACAAAGCUAGAGAGCAUCUUCGGAUGCAGAGGCGGUAGCCUUCGGUGGCGCGAUAGCGCCAACGUUCUCAACUAUGACACGCAAAACGCGUGCUCCGUUGAAUGGAGUUUAUCAUG [U45A C72U]	≤ -4.2
GGAUCUUCUCGAUCUAACAAAAAAGACAAAUCUGCCACAAAGCUAGAGAGCAUCUUCGGAUGCAGAGGCGGCAGCCUUCGGUGGCGCGAUAGUGCCAACGUUCUCAACUAUGACACGCAAAACGCGUGCUCCGUUGAAUGGAGUUUUUCAUG [U45A C93U A147U]	-2.81
GGAUCUUCUCGAUCUAACAAAAAAGACAAAUCUGCCACAAAGCUAGAGAGCUUCUACGGAUGCAGAGGCGGCAGCUUUCGGUGGCGCGAUAGCGCCAACGUUCUCAACUAUGACACGCAAAACGCGUGCUCCGUUGAAUGGAGUUUAUCAUG [U45A A52U U56A C76U]	≤ -4.2
GGAUCUUCUCGAUCUAACAAAAAAGACAAAUCUGCCACAAAGCUAGAGAGCAUCUUCGGAUGCAGAGGCGGCUGCCUUCGGUGGCGCGAUAGCGCCAACGUUCUCAACUAUGACACGCAAAACGCGUGCUCCGUUGAAUGGAGUUUAUCAUG [U45A A73U]	≤ -4.2
GGAUCUUCUCGAUCUAACAAAAAAGACAAAUCUGCCACAAAGCUAGAGAGCAUCUUCGGAUGUAGAGGCGGCAGCCUUCGGUGGCGCGAUAGCGCCAACGUUCUCAACUAUGACACGCAACACGCGUGCUCCGUUGAAUGGAGUUUAUCAUG [U45A C63U A121C]	-3.18
GGAUCUUCUCGAUCUAACAAAAAAGACAAAUCUGCCACAAAGCUAGAGAGCAUCUUCGGAUGCAGAGGAGGCAGCCUUCGGUGGCGCCAUAGCGCCCACGUUCUCAACUAUGACACGCAAAACGGGUGCUCCGUUGAAUGGAGUUUAUCAUG [U45A C69A G88C A97C C125G]	≤ -4.2
